According to publication PMC4878091 (The Journal of Cell Biology, 2016):

Molecular target: recombinant collagen IV α2 monomer (α2-84/α2-CB3)
Test: SEC

B1: recombinant collagen IV α1 monomer (α1-84/α1-CB3) (domain or fragment)
chain: not shown
- stoichiometry N: 2
